Biological target: T1, endothelial nitric oxide synthase (eNOS), purified, unphosphorylated (UniProt P29473)
T1 sequence: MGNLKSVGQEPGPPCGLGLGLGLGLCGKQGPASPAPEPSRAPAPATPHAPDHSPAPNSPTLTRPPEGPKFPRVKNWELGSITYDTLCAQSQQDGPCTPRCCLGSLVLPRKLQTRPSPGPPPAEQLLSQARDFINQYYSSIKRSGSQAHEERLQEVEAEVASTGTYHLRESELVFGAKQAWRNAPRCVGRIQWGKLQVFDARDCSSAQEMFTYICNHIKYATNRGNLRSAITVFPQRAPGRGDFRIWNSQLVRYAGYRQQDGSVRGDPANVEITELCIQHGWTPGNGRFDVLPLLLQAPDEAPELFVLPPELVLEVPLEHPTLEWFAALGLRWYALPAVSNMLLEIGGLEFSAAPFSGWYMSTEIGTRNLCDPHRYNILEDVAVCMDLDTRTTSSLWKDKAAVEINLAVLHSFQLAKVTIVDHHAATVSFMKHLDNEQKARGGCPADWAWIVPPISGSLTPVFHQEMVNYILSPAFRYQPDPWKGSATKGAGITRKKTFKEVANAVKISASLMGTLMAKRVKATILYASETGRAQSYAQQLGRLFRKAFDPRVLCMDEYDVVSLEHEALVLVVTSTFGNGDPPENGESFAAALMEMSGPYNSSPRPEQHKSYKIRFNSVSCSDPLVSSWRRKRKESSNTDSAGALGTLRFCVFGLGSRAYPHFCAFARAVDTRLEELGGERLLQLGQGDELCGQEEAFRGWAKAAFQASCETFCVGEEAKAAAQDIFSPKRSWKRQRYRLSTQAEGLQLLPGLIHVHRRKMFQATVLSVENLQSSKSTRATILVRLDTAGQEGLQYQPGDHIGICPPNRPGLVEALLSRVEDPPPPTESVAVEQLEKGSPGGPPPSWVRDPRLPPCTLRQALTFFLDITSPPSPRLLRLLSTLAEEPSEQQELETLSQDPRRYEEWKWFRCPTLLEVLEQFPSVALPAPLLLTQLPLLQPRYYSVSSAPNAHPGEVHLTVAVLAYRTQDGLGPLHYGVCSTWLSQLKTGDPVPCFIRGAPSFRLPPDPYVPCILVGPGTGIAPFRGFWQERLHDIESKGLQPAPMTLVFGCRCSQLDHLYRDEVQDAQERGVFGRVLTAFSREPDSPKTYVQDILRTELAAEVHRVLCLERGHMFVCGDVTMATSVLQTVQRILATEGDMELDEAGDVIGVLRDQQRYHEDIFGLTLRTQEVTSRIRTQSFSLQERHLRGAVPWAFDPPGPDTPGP

Substance: Phosphorylated His-p38 (p38 MAP kinase)
- NO production (hemoglobin capture assay): Weak inhibition of NO formation by 1 µM p38 in the presence of 0.6 µM CaM was observed; NO production was reduced by an average of 30%

Source: patent US20150232576
